Reference: publication PMC3977038 (Nature structural & molecular biology, 2014)

Key:
IgE-Fc(N265Q,N371Q) [1] = target: T1, IgE-Fc(N265Q,N371Q) (human, UniProt P01854); assay: ITC
T1 chain: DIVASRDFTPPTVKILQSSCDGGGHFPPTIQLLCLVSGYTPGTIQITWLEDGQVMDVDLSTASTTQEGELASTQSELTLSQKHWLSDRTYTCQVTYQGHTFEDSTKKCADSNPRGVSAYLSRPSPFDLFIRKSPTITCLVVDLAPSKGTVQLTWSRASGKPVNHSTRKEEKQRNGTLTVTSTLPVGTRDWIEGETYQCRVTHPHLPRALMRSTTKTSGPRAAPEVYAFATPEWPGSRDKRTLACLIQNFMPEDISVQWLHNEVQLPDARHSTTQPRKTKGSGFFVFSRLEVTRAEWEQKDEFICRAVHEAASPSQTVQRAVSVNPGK

IgE-Fc(N265Q,N371Q) [2] = target: T1, IgE-Fc(N265Q,N371Q); assay: ITC
IgE-Fc(N265Q,N371Q) [3] = target: T1, IgE-Fc(N265Q,N371Q); assay: SPR
IgE-Fc(N265Q,N371Q) [4] = target: T1, IgE-Fc(N265Q,N371Q); assay: stopped-flow fluorescence

B1: anti-ε-chain Fab (aεFab), anti-human IgE-Fc antibody in human IgG1 Fab format (Fab, V domains shown)
VH: QVQLQQSGPGLVKPSQTLSLTCGISGDSVSSNSAAWNWLRQSPSRGLEWLGRTYYRSKWYNDYAVSMKSRITINPDTSRNQFSLQLNSVTPEDTAVYYCARDGEISYDYYYYGMDVWGRGTLVTVSS
VL: QSVLTQPPSASGTPGQRVTISCSGSSSNIGNNGVNWYQQVPGKPPKLLIYYDDLLPSGVSDRFSGSKSGTSASLAISGLQSEDEADYYCEAWDDSLDGVVFGGGTKLTVL
In the case of B1, the “dH1 (first site)” value (IgE-Fc(N265Q,N371Q) [1]) is reported as -3.5 ± 0.1 kcal/mol, the “dH2 (second site)” value (IgE-Fc(N265Q,N371Q) [1]) is reported as -1.3 ± 0.1 kcal/mol and the Kd (IgE-Fc(N265Q,N371Q) [2]) is reported as 40 ± 20 nM. It also gave a dH (IgE-Fc(N265Q,N371Q) [2]) of -3.5 ± 0.1 kcal/mol, a Kd (IgE-Fc(N265Q,N371Q) [3]) of 95 nM and a kon (IgE-Fc(N265Q,N371Q) [4]) of 670000 M⁻¹ s⁻¹.
